{"source": "paper PMC12980445", "tested_on": "MRA_0776 (Mycobacterium tuberculosis H37Ra)", "assay": "BLI", "details": "[…] (pH not stated); BLI: PBST, 0.02% Tween-20, 30 C", "data": [{"substance": "dosR promoter (SN441-BIO)", "values": [{"measurement": "Kd", "value": 2880, "unit": "nM"}]}]}
